Columns and labels:
[1] = target: T1, talin1 R7-R8 (murine talin1 residues 1357–1653) (mouse, UniProt P26039 1357-1653); experiment: fluorescence polarisation; fixed 0.5 μM BODIPY-labelled KANK peptide, increasing talin R7-R8, PBS, 100 μl, room temperature, triplicate; one site total and non-specific binding model; conditions: both partners purified
T1 construct: talin1, mouse, residues 1357-1653 (R7-R8); 15N-labelled for NMR, unlabelled for fluorescence polarisation; Vector pet151-TOPO; also called talin R7-R8; wild type R7-R8
T1 sequence (P26039 1357-1653): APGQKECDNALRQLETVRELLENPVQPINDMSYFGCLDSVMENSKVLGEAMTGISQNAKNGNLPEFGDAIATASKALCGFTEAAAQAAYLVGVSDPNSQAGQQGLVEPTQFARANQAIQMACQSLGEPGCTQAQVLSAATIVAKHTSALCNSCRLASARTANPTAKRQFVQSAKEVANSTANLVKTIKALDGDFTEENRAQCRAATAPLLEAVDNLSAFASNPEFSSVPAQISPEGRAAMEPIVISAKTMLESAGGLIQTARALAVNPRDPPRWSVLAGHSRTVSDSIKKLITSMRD

[2] = target: T2, talin1 R7-R8 S1641E (mouse, UniProt P26039 1357-1653, S1641E); experiment: as above; conditions: both partners purified
T2 construct: talin1, mouse, R7-R8 (limits as the wild type: 1357-1653) with S1641E; also called S1641E mutant; source: gene synthesized by GeneArt
T2 sequence (P26039 1357-1653 S1641E): as the sequence (P26039 1357-1653) above, with S285E counted along it

Row | binding result [1] | binding result [2] | Binder
1 | binds | binds | PYFVETPYGFQLDLDFVKYVDDIQKGNTIKKC (BODIPY TMR dye coupled via the carboxy terminal cysteine, KANK1, human, residues 30-60; added C-terminal cysteine; also called KANK1(30–60) peptide; source: synthetic peptide (Biomatik), dye-coupled, gel filtered) [BODIPY-labeled KANK1(30–60)C peptide]
2 | binds |  | PYSVETPYGYRLDLDFLKYVDDIEKGHTLRRC (BODIPY TMR dye coupled via the carboxy terminal cysteine, KANK2, residues 31-61; added C-terminal cysteine; source: synthetic peptide (Biomatik), dye-coupled, gel filtered) [BODIPY-labeled KANK2(31–61)C peptide]
